Measured values published in patent US20230053129A1.

Target: Shiga toxin 2 (UniProt P09385)
Sequence (P09385 23-319, chain 1 of 2): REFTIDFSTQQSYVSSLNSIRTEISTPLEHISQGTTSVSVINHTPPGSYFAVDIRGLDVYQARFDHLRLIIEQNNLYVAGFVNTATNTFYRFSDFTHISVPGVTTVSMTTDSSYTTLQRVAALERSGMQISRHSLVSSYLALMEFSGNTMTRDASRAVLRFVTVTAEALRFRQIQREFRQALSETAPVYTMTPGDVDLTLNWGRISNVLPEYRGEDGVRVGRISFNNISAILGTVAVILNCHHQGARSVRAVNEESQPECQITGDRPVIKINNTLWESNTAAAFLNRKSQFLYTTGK
Sequence (P09386 20-89, chain 2 of 2, further chain): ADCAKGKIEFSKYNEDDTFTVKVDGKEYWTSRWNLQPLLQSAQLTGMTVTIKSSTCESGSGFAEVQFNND

## NAB815 (OA-Dab-Thr-DThr-cy[Dab-Dab-DPhe-Leu-Abu-Dab-Thr-]) (peptide)
  Kd: 5 nM
  maximum reduction of fluorescence emission: 10%
